# US20090142377
# T1: cross-beta nOVA: ovalbumin (chicken egg-white albumin) dissolved at 1 mg/ml in PBS, P01012
# T1 chain: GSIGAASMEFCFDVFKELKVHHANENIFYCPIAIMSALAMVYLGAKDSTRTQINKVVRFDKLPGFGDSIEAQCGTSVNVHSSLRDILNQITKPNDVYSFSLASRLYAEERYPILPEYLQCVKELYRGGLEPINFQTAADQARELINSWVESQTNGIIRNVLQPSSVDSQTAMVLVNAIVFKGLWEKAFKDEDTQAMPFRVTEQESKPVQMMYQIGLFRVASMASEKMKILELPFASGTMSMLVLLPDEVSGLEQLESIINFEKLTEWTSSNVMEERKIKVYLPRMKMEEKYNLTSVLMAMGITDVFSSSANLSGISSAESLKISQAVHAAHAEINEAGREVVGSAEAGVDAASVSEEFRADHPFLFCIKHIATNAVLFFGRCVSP
# T2: dOVA-3: ovalbumin 1 mg/ml in PBS, about 16 h at 75 C, P01012
# T2 chain: T1 chain
# T3: dOVA-1: ovalbumin 5.2 mg/ml in HBS, acidified with HCl, 40 minutes at 37 C, neutralized, P01012
# T3 chain: T1 chain
# T4: dOVA-2: ovalbumin 1 mg/ml in PBS, five heat cycles 30 to 85 C, P01012
# T4 chain: T1 chain
# B1: tissue type plasminogen activator (tPA; Actilyse, Boehringer-Ingelheim) (protein)
# chain: SYQVICRDEKTQMIYQQHQSWLRPVLRSNRVEYCWCNSGRAQCHSVPVKSCSEPRCFNGGTCQQALYFSDFVCQCPEGFAGKCCEIDTRATCYEDQGISYRGTWSTAESGAECTNWNSSALAQKPYSGRRPDAIRLGLGNHNYCRNPDRDSKPWCYVFKAGKYSSEFCSTPACSEGNSDCYFGNGSAYRGTHSLTESGASCLPWNSMILIGKVYTAQNPSAQALGLGKHNYCRNPDGDAKPWCHVLKNRRLTWEYCDVPSCSTCGLRQYSQPQFRIKGGLFADIASHPWQAAIFAKHRRSPGERFLCGGILISSCWILSAAHCFQERFPPHHLTVILGRTYRVVPGEEEQKFEVEKYIVHKEFDDDTYDNDIALLQLKSDSSRCAQESSVVRTVCLPPADLQLPDWTECELSGYGKHEALSPFYSERLKEAHVRLYPSSRCTSQHLLNRTVTDNMLCAGDTRSGGPQANLHDACQGDSGGPLVCLNDGRMTLVGIISWGLGCGQKDVPGVYTKVTNYLDWIRDNMRP
# Legend:
# [1] = biological target: cross-beta factor VIII form 12: Helixate FVIII incubated for 1 week at 37 C, stored at 4 C, P00451
# Chain of cross-beta factor VIII form 12: Helixate FVIII incubated for 1 week at 37 C, stored at 4 C, P00451 (P00451 whole entry, looked up): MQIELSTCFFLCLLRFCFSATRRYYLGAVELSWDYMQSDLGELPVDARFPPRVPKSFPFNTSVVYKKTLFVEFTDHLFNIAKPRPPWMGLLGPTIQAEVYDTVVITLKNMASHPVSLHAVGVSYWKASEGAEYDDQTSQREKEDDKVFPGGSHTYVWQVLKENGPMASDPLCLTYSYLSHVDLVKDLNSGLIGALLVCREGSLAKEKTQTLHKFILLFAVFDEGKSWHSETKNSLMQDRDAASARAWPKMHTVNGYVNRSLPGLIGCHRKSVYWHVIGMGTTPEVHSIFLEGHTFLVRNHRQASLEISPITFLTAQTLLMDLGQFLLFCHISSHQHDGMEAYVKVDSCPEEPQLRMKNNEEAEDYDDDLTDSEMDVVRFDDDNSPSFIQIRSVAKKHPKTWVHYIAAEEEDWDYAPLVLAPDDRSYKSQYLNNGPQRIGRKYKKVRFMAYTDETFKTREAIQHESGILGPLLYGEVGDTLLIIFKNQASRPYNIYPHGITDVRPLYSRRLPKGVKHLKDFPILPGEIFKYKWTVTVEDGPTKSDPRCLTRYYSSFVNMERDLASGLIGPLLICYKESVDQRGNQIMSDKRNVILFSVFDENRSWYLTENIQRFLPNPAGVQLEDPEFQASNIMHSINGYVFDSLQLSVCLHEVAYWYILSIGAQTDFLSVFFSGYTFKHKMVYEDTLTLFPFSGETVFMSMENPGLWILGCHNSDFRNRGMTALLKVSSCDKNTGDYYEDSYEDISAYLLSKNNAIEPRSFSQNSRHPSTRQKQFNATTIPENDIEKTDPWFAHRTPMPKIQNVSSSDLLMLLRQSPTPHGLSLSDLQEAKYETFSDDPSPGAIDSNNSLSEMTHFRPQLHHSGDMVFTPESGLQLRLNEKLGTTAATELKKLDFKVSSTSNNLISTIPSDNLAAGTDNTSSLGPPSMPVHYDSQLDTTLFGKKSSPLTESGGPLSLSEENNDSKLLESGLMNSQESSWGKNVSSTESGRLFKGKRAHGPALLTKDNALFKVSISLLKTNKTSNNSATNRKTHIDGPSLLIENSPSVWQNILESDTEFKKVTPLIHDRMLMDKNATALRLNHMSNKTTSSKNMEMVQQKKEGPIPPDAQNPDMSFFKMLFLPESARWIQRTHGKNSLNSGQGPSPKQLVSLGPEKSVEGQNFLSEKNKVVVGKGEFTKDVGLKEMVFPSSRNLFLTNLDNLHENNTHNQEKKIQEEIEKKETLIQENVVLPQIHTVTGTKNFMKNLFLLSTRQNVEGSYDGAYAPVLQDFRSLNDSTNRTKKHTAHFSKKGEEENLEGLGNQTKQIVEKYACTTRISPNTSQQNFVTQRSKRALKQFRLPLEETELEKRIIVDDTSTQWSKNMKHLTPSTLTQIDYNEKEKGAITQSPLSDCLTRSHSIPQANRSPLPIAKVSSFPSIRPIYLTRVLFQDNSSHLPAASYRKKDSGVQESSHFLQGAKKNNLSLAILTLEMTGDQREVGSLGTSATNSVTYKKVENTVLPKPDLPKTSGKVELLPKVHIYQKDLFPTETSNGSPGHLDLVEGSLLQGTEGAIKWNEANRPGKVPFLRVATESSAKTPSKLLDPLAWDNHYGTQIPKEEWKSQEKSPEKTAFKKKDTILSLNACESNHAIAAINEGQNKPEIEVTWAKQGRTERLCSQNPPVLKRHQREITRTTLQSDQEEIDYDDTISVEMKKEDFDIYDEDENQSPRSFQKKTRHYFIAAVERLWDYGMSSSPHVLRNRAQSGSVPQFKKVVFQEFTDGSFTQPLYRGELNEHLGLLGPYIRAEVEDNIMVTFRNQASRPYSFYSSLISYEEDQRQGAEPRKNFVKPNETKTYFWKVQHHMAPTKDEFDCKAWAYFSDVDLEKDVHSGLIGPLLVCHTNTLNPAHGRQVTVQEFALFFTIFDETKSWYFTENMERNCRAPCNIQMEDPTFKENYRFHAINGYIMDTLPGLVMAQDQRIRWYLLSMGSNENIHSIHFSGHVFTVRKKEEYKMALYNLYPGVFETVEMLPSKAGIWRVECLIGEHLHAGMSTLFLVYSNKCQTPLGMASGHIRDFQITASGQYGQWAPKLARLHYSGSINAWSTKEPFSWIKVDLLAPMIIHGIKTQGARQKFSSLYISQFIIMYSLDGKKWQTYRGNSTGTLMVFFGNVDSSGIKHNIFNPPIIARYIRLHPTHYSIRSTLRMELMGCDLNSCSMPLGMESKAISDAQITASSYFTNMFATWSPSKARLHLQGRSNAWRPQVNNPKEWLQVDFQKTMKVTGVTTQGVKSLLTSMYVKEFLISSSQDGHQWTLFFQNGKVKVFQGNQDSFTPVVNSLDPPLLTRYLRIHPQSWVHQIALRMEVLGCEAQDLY
# [2] = biological target: T1, cross-beta nOVA: ovalbumin (chicken …)
# [3] = biological target: CH5-3 (nH5 heat-cycled at pH 12, back to pH 7), H5 of A/Vietnam/1203/04
# [4] = biological target: CH5-4 (nH5 incubated with 100 mM glucose-6-phosphate for 67 h at 80 C), H5 of A/Vietnam/1203/04
# [5] = biological target: T2, dOVA-3: ovalbumin 1 mg/ml in PBS, about …
# [6] = biological target: cross-beta FVIII-1 (cFVIII-1): Helixate FVIII kept at 4 C for 20 hours, stored at -80 C
# Target sequence (chain, as listed by the source): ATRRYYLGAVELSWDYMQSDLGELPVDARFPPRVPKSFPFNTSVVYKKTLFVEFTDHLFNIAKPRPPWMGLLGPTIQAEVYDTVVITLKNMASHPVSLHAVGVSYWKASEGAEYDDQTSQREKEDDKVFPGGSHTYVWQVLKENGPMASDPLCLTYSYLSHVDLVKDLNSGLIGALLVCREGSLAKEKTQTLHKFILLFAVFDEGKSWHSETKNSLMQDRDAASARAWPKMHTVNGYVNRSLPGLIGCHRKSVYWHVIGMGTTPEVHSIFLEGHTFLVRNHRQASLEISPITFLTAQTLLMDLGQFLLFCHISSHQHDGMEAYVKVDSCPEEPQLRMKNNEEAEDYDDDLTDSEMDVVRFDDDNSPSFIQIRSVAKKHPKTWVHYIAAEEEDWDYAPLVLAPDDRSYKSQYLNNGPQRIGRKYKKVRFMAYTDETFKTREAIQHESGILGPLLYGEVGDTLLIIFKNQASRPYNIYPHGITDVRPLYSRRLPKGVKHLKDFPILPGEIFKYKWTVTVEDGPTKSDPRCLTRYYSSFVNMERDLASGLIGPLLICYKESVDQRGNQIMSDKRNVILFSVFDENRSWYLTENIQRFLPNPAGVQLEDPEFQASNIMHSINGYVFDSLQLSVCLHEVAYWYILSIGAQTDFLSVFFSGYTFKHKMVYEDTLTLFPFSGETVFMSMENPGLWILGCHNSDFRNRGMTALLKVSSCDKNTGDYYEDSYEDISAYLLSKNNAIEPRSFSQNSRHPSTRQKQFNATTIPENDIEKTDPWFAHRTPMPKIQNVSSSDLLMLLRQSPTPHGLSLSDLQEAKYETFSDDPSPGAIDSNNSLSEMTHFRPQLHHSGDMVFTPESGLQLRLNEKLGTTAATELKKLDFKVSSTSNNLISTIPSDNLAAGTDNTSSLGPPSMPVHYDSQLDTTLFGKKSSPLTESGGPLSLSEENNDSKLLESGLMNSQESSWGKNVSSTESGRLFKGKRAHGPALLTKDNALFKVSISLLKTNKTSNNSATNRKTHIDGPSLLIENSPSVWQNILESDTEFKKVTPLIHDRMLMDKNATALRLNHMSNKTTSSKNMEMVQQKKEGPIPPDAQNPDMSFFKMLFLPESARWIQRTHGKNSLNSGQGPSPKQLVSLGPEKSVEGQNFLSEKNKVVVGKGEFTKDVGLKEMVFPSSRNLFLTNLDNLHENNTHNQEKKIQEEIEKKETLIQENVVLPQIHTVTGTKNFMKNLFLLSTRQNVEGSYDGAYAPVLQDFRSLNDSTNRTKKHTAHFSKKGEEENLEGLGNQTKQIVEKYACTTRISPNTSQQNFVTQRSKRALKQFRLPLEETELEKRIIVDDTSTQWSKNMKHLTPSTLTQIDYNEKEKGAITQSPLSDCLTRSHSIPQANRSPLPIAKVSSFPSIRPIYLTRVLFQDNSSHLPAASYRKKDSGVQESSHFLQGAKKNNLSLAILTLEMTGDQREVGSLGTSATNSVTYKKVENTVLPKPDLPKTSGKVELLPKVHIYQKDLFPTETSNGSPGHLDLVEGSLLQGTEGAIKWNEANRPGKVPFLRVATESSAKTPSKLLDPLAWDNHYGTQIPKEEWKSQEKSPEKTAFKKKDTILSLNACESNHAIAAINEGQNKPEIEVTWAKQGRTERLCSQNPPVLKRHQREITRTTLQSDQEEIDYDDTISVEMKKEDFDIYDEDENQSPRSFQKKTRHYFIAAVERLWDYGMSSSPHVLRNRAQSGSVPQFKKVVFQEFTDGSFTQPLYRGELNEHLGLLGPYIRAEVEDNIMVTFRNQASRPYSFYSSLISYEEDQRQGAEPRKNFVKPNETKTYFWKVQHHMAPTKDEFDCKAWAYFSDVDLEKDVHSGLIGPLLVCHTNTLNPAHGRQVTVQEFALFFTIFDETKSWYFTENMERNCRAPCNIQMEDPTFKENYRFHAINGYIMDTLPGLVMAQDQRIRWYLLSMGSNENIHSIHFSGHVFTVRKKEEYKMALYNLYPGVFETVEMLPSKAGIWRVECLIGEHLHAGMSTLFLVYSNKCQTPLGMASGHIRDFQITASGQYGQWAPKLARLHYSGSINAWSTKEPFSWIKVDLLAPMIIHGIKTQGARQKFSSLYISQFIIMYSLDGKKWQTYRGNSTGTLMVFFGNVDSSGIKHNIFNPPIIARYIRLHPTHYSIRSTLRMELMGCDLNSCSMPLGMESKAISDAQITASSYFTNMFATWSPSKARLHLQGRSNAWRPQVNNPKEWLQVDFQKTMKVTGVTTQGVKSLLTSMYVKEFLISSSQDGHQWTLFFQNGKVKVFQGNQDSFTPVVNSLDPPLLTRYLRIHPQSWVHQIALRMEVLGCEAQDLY
# [7] = biological target: non-treated H5 (nH5) of H5N1 strain A/Vietnam/1203/04 (Protein Sciences)
# [8] = biological target: CH5-2 (nH5 heat-cycled at pH 2, back to pH 7), H5 of A/Vietnam/1203/04
# [9] = biological target: CH5-1 (nH5 heat-cycled three times 25 to 85 C), H5 of A/Vietnam/1203/04
# [10] = biological target: T3, dOVA-1: ovalbumin 5.2 mg/ml in HBS, …
# [11] = biological target: T4, dOVA-2: ovalbumin 1 mg/ml in PBS, five …
# [12] = biological target: cFVIII-5: Helixate FVIII kept at 95 C for 5 minutes
# Chain of cFVIII-5: Helixate FVIII kept at 95 C for 5 minutes (chain, as listed by the source): as above
protein,measurement,setting,value
B1,"tPA/Plg activation assay, compared to a misfolded ovalbumin standard",[1],"cross-beta fVIII forms 1, 12 and 5 is approximately 50, 75 and 125%"
same,"tPA activation potency, activation at 10 ug/mL (% of reference)",[2],48.8
same,"tPA activation potency, activation at 25 ug/mL (% of reference)",[2],48.1
same,tPA mediated plasminogen activation assay,[3],cH5-3 (200% of standard)
same,tPA mediated plasminogen activation assay,[4],cH5-4 (37% of standard)
same,"tPA activation potency, activation at 10 ug/mL (% of reference)",[5],60.9
same,"tPA activation potency, activation at 25 ug/mL (% of reference)",[5],79
same,"tPA/Plg activation assay, compared to a misfolded ovalbumin standard",[6],"cross-beta fVIII forms 1, 12 and 5 is approximately 50, 75 and 125%"
same,tPA mediated plasminogen activation assay,[7],nH5 (140% of standard)
same,tPA mediated plasminogen activation assay,[8],cH5-2 (150% of standard)
same,tPA mediated plasminogen activation assay,[9],cH5-1 (50% of standard)
same,"tPA activation potency, activation at 10 ug/mL (% of reference)",[10],97.4
same,"tPA activation potency, activation at 25 ug/mL (% of reference)",[10],136
same,"tPA activation potency, activation at 10 ug/mL (% of reference)",[11],107
same,"tPA activation potency, activation at 25 ug/mL (% of reference)",[11],107
same,"tPA activation potency, reference dOVA-2 at 80 ug/mL (column 10 ug/mL) (% of reference)",[11],100
same,"tPA activation potency, reference dOVA-2 at 80 ug/mL (column 25 ug/mL) (% of reference)",[11],100
same,"tPA/Plg activation assay, compared to a misfolded ovalbumin standard",[12],"cross-beta fVIII forms 1, 12 and 5 is approximately 50, 75 and 125%"
